{"source": "the DeepSol protein solubility set"}
{"assay": "soluble on expression in E. coli; label from the status in PepcDB or PDB records"}
{"sequence": "MSLDSISLHKIFYKVLKNNTLPECQVIAAEGLCKLYLADIFNDDDLFETLILSYFSPSNSSNEGLIQAFAFCIPVYSYSHVLHQQRITKIASDVLLRLYMLWVDFQANEETDENIETMLKPNVILQQLISWTDPRKLIGENEKAINDNYQLNFLLDIFQQFPKFDKKNIKKMILTNINAFYVSSDNDMHKLREIKEHLEDIIENEIIDTMTLNSLEKFKNTIIDCLEEAKEKSENQTKDEIESSDGEYSMILESSNIGNISDVEKDVNVEAAQFSDSENDFEDSDDDTSRKRNRSKLEESIANNTSEKLSVNEDYDSEDTNEPKNDAKDINEPEDGTKDVIMEDSVSSNVIENSKNVSFILPDNDYSSSESSMSVDDESYKEEGHHHHHH", "soluble on expression in E. coli": "soluble"}
{"sequence": "MSLDSPFGPEDDICILHFNDVYNIEEDVNGTGGVARFVEALKSFRSLNPLLLFSGDVFNPSIMSVTTKGRHMVPFLNMMRVHTACFGNHDFDFGVDHLEYLAGSCNFQWILSNVYDAYTGEPLANARTYRLFEWQGRRIGIMGLVEKDWLKTLPTISEEDVIYKDFVEEANRISKILREKDAELIIALTHMRAPNDELLAKGADDIDLILGGHDHEYYGVKEIGNSVVAKSGTDFRDLTMIVIKPGKHCLVCPNSDSKLHLESCRYSSFSLDQPQNIYEERLIPNNKDGGDIYLREGHHHHHH", "soluble on expression in E. coli": "soluble"}
{"sequence": "MSLDSPPIRVFVVEDQTKILKNQLRLFENHPEMDIIGTALSGEAALEEVPKLMPDVLLLDLGLPRMSGIDVTREVKARFPKIEILIFTIFDEEDKVLEAVKAGASGYLLKGAPVDKIIEAIKEVRAGGTVIQPNLARRLLRHFRVEPDASPLISPPAAPEPSASDLPQEPLLKPLSDREREILQLIAKGVSNSEAARLLDLSKATIRTHLEHIYRKLEVTNRVEAVTEGIRKGLISEGHHHHHH", "soluble on expression in E. coli": "soluble"}
{"sequence": "MSLDSRLPAFRNLSPAARLDHIGQLLGLSHDDVSLLANAGALPMDIANGMIENVIGTFELPYAVASNFQINGRDVLVPLVVEEPSIVAAASYMAKLARANGGFTTSSSAPLMHAQVQIVGIQDPLNARLSLLRRKDEIIELANRKDQLLNSLGGGCRDIEVHTFADTPRGPMLVAHLIVDVRDAMGANTVNTMAEAVAPLMEAITGGQVRLRILSNLADLRLARAQVRITPQQLETAEFSGEAVIEGILDAYAFAAVDPYRAATHNKGIMNGIDPLIVATGNDWRAVEAGAHAYACRSGHYGSLTTWEKDNNGHLVGTLEMPMPVGLVGGATKTHPLAQLSLRILGVKTAQALAEIAVAVGLAQNLGAMRALATEGIQRGHMALHARNIAVVAGARGDEVDWVARQLVEYHDVRADRAVALLKQKRGQ", "soluble on expression in E. coli": "soluble"}
{"sequence": "MSLDTGVTSVMFVERSLNEIRFWSRIMKEHSFFLRLGFRCEDTQLIEEANQFYRLFEHIEQIAHSYTNETDPEQIKRFNAEVQQAATNIWGFKRKILGLILTCKLPGQNNFPLLVDHTSREADYFRKRLIQLNEGKLDALPDAIIKENVFFLRIMADHAKFIGHLLDPSERKLVDTARNFSNDFDELMYQAIDLESMKPQSQTAPLLDQFLDQNRVSVASLRDFKKTARDLIEQCKIKSIIHPLLADHVFREADRFLEIIDMYDVHLTNIQSQPREGHHHHHH", "soluble on expression in E. coli": "soluble"}
{"sequence": "MSLDTHSLRFSKEGTFQITVFSDLHFAEYENTAQGAKQDSRTAGVVRKVLQHEASTQLVVLNGDLISGYGTTSDNATRYLDQVLAPIQALGLPWAVTYGNHDNERFARSRELLDYESRTYPNYSLTRNMGPRDLEAGVSNYYLEVFAAETSHVPEMLLWFFDSRGGAQPHDWVHDSVVQWFIDTNANLTNKYNKAVPSIAFFHIPITATYDFQLYPGVDTSREPGINGEKVWWQGRGYDGKTGHDLKFMAALSATEGMLATFSGHDHDNDWCFKWKSPSATSSSAGLNVCYGRHTGYGGYGGLARGARQILLKQSTIKDEVATWIRLEDGLVPENVTLNATYGQDEEGHHHHHH", "soluble on expression in E. coli": "not soluble"}
{"sequence": "MSLDTMIASLEQSKKRAEEELSETESIRKEAEKLHKELQQQIIELNSKKDKMLEEAEQQAAEKVKAAMKEAEDIIHELRTIKEEHKSFKDHELINAKKRLEGAMPAFEKSKKPEKPKTQKRDFKPGDEVKVLTFGQKGTLLEKTGGNEWNVQIGILKMKVKEKDLEFIKSAPEPKKEKMITAVKGKDYHVSLELDLRGERYENALSRVEKYLDDAVLAGYPRVSIIHGKGTGALRKGVQDLLKNHRSVKSSRFGEAGEGGSGVTVVELKEGHHHHHH", "soluble on expression in E. coli": "soluble"}
{"sequence": "MSLDTPDYKRVVLKLSGEALAGNDGFGINPSVVNLISAQIKEVVELGVEVAIVVGGGNIWRGKLGSEMGMDRAAADQMGMLATIMNSLSLQDSLENIGVATRVQTSIDMRQIAEPYIRRKAIRHLEKGRVVIFAGGTGNPYFSTDTAAALRAAEIEADVILMAKNNVDGVYNADPKLDENAKKYEELSYLDVIKEGLEVMDTTASSLSMDNDIPLIVFSFTEQGNNIKRVILGEKIGTTVRGKKEGHHHHHH", "soluble on expression in E. coli": "soluble"}
{"sequence": "MSLDVRIVDIDSEKPPEAKRCFLLSDVHGRADDIDTKYFNYDFDFLFFAGDMSNKSKYHEIKSFKKWINKMKAKYKIVVAGNHDLVFDREEFNDIIIGNHTAQEIRDLILKDKNIIYLEHEEITIEGIKIFGTPLSNIRIHQAFKEPYEDENDPHEEYLFFSIPDSTNIVLSHGVMKGYLDKEPNSRCKGSYGLRHAIDRVKPDLLICGHMHGCQGHTTHNNTTVILPSFCKRDKFGEETNNPYIIDIIPKLSLRMSIWKKSEKIPKMLKMNFPNVFFYLIFLILKKIWREELFVFEFYHDGEGHHHHHH", "soluble on expression in E. coli": "soluble"}
{"sequence": "MSLDVSYSFTPLTGYKDSLVNQHVKLPLNYPTIDNHNPKKSTTPNNEFHKKIATTGKIINLPKQSIVPAVSISVYNDMKTIVLTPMEFQLSSIGFQFQNLIIDLPHSTISTNCITFYYHQDHILIDLIDQNYLFITLKIAIDRFILGGQQLTLDNFEEWGYISVPYSFELRSSPFLLKCLDNLNLIVSLKDGGLLHFKRDEELGEINVFNFQEQGTLIPFLGFFGSGKQKDVVLDGVSSNSIVDALQIGGSGVVITLSVNKVLKLWNLDGHQNLSSLTIASDDNTWLPTIPSKYLKSYDQEDGKTIITLFINTKSGDSSKSMFVFKSFELESSNLHDLSDLSFQPELPNSLLFSSDVFYHESNFQNTIWFIQDYEVVGFGTSQLKYYILWKSNTSSILVEYTINPVNGAILSIEISHPNGFEIDENISAYHDAEYYMDRIFDSGNYDSLIVLTSIKILSQHWEIDNEGHHHHHH", "soluble on expression in E. coli": "soluble"}
{"sequence": "MSLEAKRPEQTRVVVGMSGGVDSSVTALLLKEQGYDVIGIFMKNWDDTDENGVCTATEDYQDVVQVCNQLGIAYYAVNFEKEYWDKVFTYFLEEYKAGRTPNPDVMCNKEIKFKAFLNHALTLGADYVATGHYAQVKNVDGQYQLIRGKDPNKDQTYFLNALSQQQLSRVMFPLGHLEKKEVRAIAERAGLATAKKKDSTGICFIGKRDFKEFLSSYLPAQPGEMQTLDGEVKGTHDGLMYYTLGQRQGLGIGGSGEPWFVIGKNLEKNILYVGQGFHHPGLYSEGLRAIKVNWILRRESDEPFECTAKFRYRQPDQKVTVYPQSDGAVEVLFAEPQRAITPGQAVVFYDGDVCLGGGTIDHVLKKKEDRESAEGHHHHHH", "soluble on expression in E. coli": "soluble"}
{"sequence": "MSLEDKDLRSIQEVRNLIESANKAQKELAAMSQQQIDTIVKAIADAGYGAREKLAKMAHEETGFGIWQDKVIKNVFASKHVYNYIKDMKTIGMLKEDNEKKVMEVAVPLGVVAGLIPSTNPTSTVIYKTLISIKAGNSIVFSPHPNALKAILETVRIISEAAEKAGCPKGAISCMTVPTIQGTDQLMKHKDTAVILATGGSAMVKAAYSSGTPAIGVGPGNGPAFIERSANIPRAVKHILDSKTFDNGTICASEQSVVVERVNKEAVIAEFRKQGAHFLSDAEAVQLGKFILRPNGSMNPAIVGKSVQHIANLAGLTVPADARVLIAEETKVGAKIPYSREKLAPILAFYTAETWQEACELSMDILYHEGAGHTLIIHSEDKEIIREFALKKPVSRLLVNTPGALGGIGATTNLVPALTLGCGAVGGSSSSDNIGPENLFNIRRIATGVLELEDIRKEENQATSELPVDADALIQSLVEKVLAELKEGHHHHHH", "soluble on expression in E. coli": "soluble"}
{"sequence": "MSLEEINKIEVIEKSIEENTEKYEIKVKYPSIQGGEKEVTDKINKTIEDYTLNWINDIKLLGEEYSKEYEKAGKEMPKMEAYSLFEAFNTDEVISLPVSYYQYTGGAHGLTTKVSYNYNLKTGKELKLKDLFKEGFDYKSIIDKKVRGDIEKEKELYFDNGALFKGVNENQAYYLNRDGIIVYFQQYEIAPYSSGIREFKIPYGELKEGLIYKLGNEGHHHHHH", "soluble on expression in E. coli": "soluble"}
{"sequence": "MSLEEPFEIPPVEDTESVAKVDVRVDGIRDDRLSENVRIYLEAMDKNEADGSERHQYLLRENISKALRVFGYYNSQVYFDLQPRSGKKDLLIASVNVGEPVRIDSTDIEISGEAAEDEEFRKLDKNVPAKGAVLEHEIYDDYKSSLEKLARQRGYFDADFPVHELQVMPSTNQGWWHLVFNSGQRYHYGDISFHGSQIREDYLRNILKIQSGDPYLINDVSGMTSDYSSTNWFQSVLVKPTLHEDSKLVDLAVLLRPRKKNSMELGIGYGSDSGPHTQIGWTRPWINSRGHSVRSNLYISSPKQNFEATYKMPLLKNPLNYYYEFSTGFEHEDDTKTDTQSTAATVAALRFWNHPTGWQYSAGLRARYDNFTQADVDEKTLLIYPTATVSRSRISGGTFADRADTISVTVDLGRKMWASDVNFFRIRANAGWIKTFATNHRFLTRGDIGYLHTDEFNRIPPALRFFAGGDRSVRGYGYKKIAPKDSRNGKLVGGSRLATGTLEYQYQVVQDWWAATFFDAGFAANRFSSDELRYGAGVGVRWASPVGPIKFDIATPVRDKDDSKNIQFYIGLGTEEGHHHHHH", "soluble on expression in E. coli": "not soluble"}
{"sequence": "MSLEEVLKDIERDKEEKKKEIADAASRETAKIEKEREEKIQILQREYENRMREEGSRLYNSIIDKANVEARNIVRMRVQEILDQYGAKADELIKNLAKTKEYDDVLKKMIEVSRKALGPDCIVKVNTADKGRISDGNIKFEDIDPYGGVLATSRDGKIELDLRISSIRRDILERFKVRLYSMIED", "soluble on expression in E. coli": "not soluble"}
{"sequence": "MSLEFIPRSEQRPIVDTSSTTLDLIYFDLVTLASNEQDIRRLPAHESLYVVLSGQVDIEVDGIMFEAVGRRADIWGGDADSVYAPVGANVRISARGAAAEVAIAGGLCDTRYAAFRITPDEVDAVNVGSSDTHSQRRIVHLLGQRQNGRCGNLLVSELYAGEGCWSGYPPHKHDTEDGDVETRHEELYHYRFQPETGFGSQITYDEDGPVKILMTRNGDTVLVDRGYHPTVTSPGHQGYIFTILVGKHRRGLIQRFDPAHQHLTKTIPGEGHHHHHH", "soluble on expression in E. coli": "soluble"}
{"sequence": "MSLEHPLQRFFHSMRAKRPFDWVRFQRRDLLLIDHPLCQAVFSRQGAQLLHFQPQGERPLLWCAGEWPALSSAPVRGGIPVCWPWFGSHPNGSEWPQQGWARQREWRLLDAYADESKVVVSWQLDLEDWHVRLDARLGQRLELELCSYHEEDDDCLFSFALQPYWRVGALSRVVVHGMELESARGQRGASRIPGTWIPRGAVKQVLYHPGSLVLEDGGWNRRLRIDKNVSAGSVIWHPGSRPVEQVEPGEAERFLCIGAAGYRPGGLILAPGERMRLSLAAGLQEGHHHHHH", "soluble on expression in E. coli": "soluble"}
{"sequence": "MSLEIGEKLRNLRIQKNLTQEELGERTDLSKGYISQLERDLSSPSMETFFSILEVLGVTPEQFFSQQPLEQKIVYNEEESTLYYDEEHGYELKWLIPASNEKEMEPVIITFDKNGEYKTFEPSLSETFIYVIDGSIRLTLGEATYIAKKGQTMYYQATEPHQISNNGRGKSRALIVATESYLEGGSHHHHHH", "soluble on expression in E. coli": "soluble"}
